Experimental data: paper PMC3002279, “Polyphosphate Kinase from M. tuberculosis: An Interconnect between the Genetic and Biochemical Role” (PLoS ONE, 2010)

Biological target: the molecule itself
Assay: SEC; […] (50 mM Tris pH 7.5, 150 mM NaCl, 4 mM MgCl2, 10% glycerol) […]

B1: Polyphosphate Kinase (PPK) from M. tuberculosis, recombinant, untagged (enzyme)
chain: MMSNDRKVTEIENSPVTEVRPEEHAWYPDDSALAAPPAATPAAISDQLPSDRYLNRELSWLDFNARVLALAADKSMPLLERAKFLAIFASNLDEFYMVRVAGLKRRDEMGLSVRSADGLTPREQLGRIGEQTQQLASRHARVFLDSVLPALGEEGIYIVTWADLDQAERDRLSTYFNEQVFPVLTPLAVDPAHPFPFVSGLSLNLAVTVRQPEDGTQHFARVKVPDNVDRFVELAAREASEEAAGTEGRTALRFLPMEELIAAFLPVLFPGMEIVEHHAFRITRNADFEVEEDRDEDLLQALERELARRRFGSPVRLEIADDMTESMLELLLRELDVHPGDVIEVPGLLDLSSLWQIYAVDRPTLKDRTFVPATHPAFAERETPKSIFATLREGDVLVHHPYDSFSTSVQRFIEQAAADPNVLAIKQTLYRTSGDSPIVRALIDAAEAGKQVVALVEIKARFDEQANIAWARALEQAGVHVAYGLVGLKTHCKTALVVRREGPTIRRYCHVGTGNYNSKTARLYEDVGLLTAAPDIGADLTDLFNSLTGYSRKLSYRNLLVAPHGIRAGIIDRVEREVAAHRAEGAHNGKGRIRLKMNALVDEQVIDALYRASRAGVRIEVVVRGICALRPGAQGISENIIVRSILGRFLEHSRILHFRAIDEFWIGSADMMHRNLDRRVEVMAQVKNPRLTAQLDELFESALDPCTRCWELGPDGQWTASPQEGHSVRDHQESLMERHRSP
notes: also called M. tu PPK; M.tu PPK
  stoichiometry N: 4
